B2: Tse15 N-terminal clade domain (residues 1-334) (domain or fragment)
chain: MAKENTQQKEIKRQPAVELAVFNLNSVTDVADLQMIASQVQLYLQVCGNTTLEQIKSKANITTVANIFALTGSVLDLMLYATDKKTGDAAVQRGALLAANLIGLFSEPNNEAHARMALRPMFGLMAECLYRENGKIKETDIKRLGLHLNAMIAGDLENFLKETQAKLSSLLISATTLGVTILQSMATPATGINAGITTAAGASAEKRDPKLKFTNWAVPLIDLLGKPSQANLTPKIQPNITSRLQQEATQAIAALSQTLQQQANAGQKYTLAWLLQETLKAIQALENKGNASVPINQTGEYERHTKGDTLEFVSLQADALNAPPCEGADSQSGK
notes: Tse15, A. baumannii AB307-0294, N-terminal clade domain, residues 1-334; Residues 14-333 are modelled in the structure; also called N-terminal clade-specific domain; not shown: StrepTag-II, N-terminal, kept

For assay [1], the target named is B2. Nature of the assay: pull-down + SEC; nickel affinity (HisTrap HP) from E. coli lysate by the His tag that only the CTD carries, then analytical size-exclusion (Superdex200 10/300 GL Increase, 50 mM Hepes pH 8.0, 0.3 M NaCl); fragments identified by SDS-PAGE, Western blot, peptide fingerprinting and N-terminal sequencing. Conditions: partners not purified.
For assay [2], the target named is T1, Tse15 central Rhs domain (residues 335-1395) (Acinetobacter baumannii (strain …, UniProt A0A5K6CSR3 335-1395)).
T1 construct: Tse15, A. baumannii AB307-0294, central Rhs domain, residues 335-1395; also called Rhs cage; β-cocoon
T1 sequence: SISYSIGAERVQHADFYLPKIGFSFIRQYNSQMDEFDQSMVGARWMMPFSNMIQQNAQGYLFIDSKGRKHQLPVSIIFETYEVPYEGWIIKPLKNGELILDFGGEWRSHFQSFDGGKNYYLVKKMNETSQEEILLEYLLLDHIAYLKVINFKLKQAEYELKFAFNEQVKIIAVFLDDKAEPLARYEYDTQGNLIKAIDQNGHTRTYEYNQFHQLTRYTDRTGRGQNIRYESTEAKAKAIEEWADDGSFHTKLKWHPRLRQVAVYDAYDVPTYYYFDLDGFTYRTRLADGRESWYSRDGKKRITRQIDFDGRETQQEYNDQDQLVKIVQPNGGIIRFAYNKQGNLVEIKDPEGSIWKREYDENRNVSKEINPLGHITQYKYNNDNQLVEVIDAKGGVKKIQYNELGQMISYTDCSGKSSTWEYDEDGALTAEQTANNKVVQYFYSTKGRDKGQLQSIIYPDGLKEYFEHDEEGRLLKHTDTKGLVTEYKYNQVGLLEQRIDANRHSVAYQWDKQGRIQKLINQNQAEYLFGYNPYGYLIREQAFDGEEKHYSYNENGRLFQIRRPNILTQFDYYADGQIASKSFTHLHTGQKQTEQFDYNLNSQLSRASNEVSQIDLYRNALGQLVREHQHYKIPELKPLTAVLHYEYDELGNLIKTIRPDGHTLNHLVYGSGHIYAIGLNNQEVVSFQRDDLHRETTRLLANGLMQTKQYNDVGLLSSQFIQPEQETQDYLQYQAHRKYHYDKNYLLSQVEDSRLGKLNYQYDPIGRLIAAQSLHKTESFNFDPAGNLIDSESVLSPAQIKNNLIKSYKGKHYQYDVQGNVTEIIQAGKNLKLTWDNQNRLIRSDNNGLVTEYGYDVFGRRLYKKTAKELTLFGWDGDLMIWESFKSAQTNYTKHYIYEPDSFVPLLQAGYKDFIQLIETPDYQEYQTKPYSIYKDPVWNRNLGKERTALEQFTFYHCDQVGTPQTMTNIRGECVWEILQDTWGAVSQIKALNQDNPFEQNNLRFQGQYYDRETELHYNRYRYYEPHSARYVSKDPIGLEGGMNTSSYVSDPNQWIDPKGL
The assay is described as above. Conditions: partners not purified.

Assay [3] addresses T1, Tse15 central Rhs domain (residues …). Nature of the assay: cryo-EM structure; single particle cryo-EM of purified protein, 3 mg/mL, UltrAuFoil grids; Tse15 at 200 kV (Talos Arctica), Tse15NN at 300 kV (Titan Krios). The following applies: both partners purified.

B1: Tse15 toxic C-terminal domain (residues 1396-1590) (domain or fragment)
chain: NSFNYGEMFGIPASAQSGLAYQGQRNYECYAETGELCKIKVPPLFDYVACSGGGLGIGVGFVKNQWTGEYYISGSKDSLLIPVAKSVAQNKQFSAKDLAGASCVGGNIHNIPSYTKTTMTMGEITNEFVSGASVTVGGGAYGAVANVVVPLVSKSSPVKGTWASELGVGTPGFNVGVSGTVSVDTILDAVKPSKK
notes: Tse15, A. baumannii AB307-0294, toxic CTD, residues 1396-1590; also called CTD; toxin domain; not shown: His6, C-terminal, kept
Turning to B1, the binding result in assay [1] and in assay [2] was “binds” each time. Take B2: the binding result in assay [3] is on record as “binds”.
